Test results taken from patent US6645762B2, “Synthases” (The Salk Institute for Biological Studies, priority 1998, dated 2003).
Substitutions are numbered along the chain they refer to. In names and notes the source's numbering stands.

B1: wild-type TEAS: tobacco 5-epi-aristolochene synthase (TEAS) protein, SEQ ID NO:2, Nicotiana tabacum (protein)
chain: MASAAVANYEEEIVRPVADFSPSLWGDQFLSFSIKNQVAEKYAQEIEALKEQTRNMLLATGMKLADTLNLIDTIERLGISYHFEKEIDDILDQIYNQNSNCNDLCTSALQFRLLRQHGFNISPEIFSKFQDENGKFKESLASDVLGLLNLYEASHVRTHADDILEDALAFSTIHLESAAPHLKSPLREQVTHALEQCLHKGVPRVETRFFISSIYDKEQSKNNVLLRFAKLDFNLLQMLHKQELAQVSRWWKDLDFVTTLPYARDRVVECYFWALGVYFEPQYSQARVMLVKTISMISIVDDTFDAYGTVKELEAYTDAIQRWDINEIDRLPDYMKISYKAILDLYKDYEKELSSAGRSHIVCHAIERMKEVVRNYNVESTWFIEGYTPPVSEYLSNALATTTYYYLATTSYLGMKSATEQDFEWLSKNPKILEASVIICRVIDDTATYEVEKSRGQIATGIECCMRDYGISTKEAMAKFQNMAETAWKDINEGLLRPTPVSTEFLTPILNLARIVEVTYIHNLDGYTHPEKVLKPHIINLLVDSIKI
B2: TEAS W273E: TEAS protein in which Trp273 is changed to Glu, SEQ ID NO:4 (protein)
chain: B1 chain with K35D, N55S, M62R, T73I, D89E, W273E, T388M
B3: TEAS Y527F: TEAS protein in which Tyr527 is changed to Phe, SEQ ID NO:8 (protein)
chain: B1 chain with K35D, N55S, M62R, T73I, D89E, T388M, Y527F
B4: boiled W273E-TEAS: boiled W273E-TEAS used as control in alkylation experiment (protein, UniProt Q40577 1-548, looked up, variant W273E)
5-epi-aristolochene synthase: B1 chain with Q44K, W273E
modifications: heat-denatured (boiled)
notes: boiled W273E-TEAS used as control in alkylation experiment
B5: TEAS W273S: TEAS mutant with serine at position 273 (protein, UniProt Q40577 1-548, looked up, variant W273S)
5-epi-aristolochene synthase: B1 chain with Q44K, W273S
B6: TEAS C440W/W273S: TEAS double mutant, tryptophan at position 440 and serine at position 273, SEQ ID NO:10 (protein)
chain: B1 chain with K35D, N55S, M62R, T73I, D89E, W273S, T388M, C440W
B7: TEAS Y520F: TEAS protein in which Tyr520 is changed to Phe, SEQ ID NO:6 (protein)
chain: B1 chain with K35D, N55S, M62R, T73I, D89E, T388M, Y520F
B8: TEAS C440W: TEAS mutant with tryptophan at position 440 (protein, UniProt Q40577 1-548, looked up, variant C440W)
5-epi-aristolochene synthase: B1 chain with Q44K, C440W

Assays:
Type in all cases: biochemical
[1] = Diterpene synthase activity assay with radiolabelled GGPP (solvent extraction, scintillation counting, Ag-TLC); settings: for conversion of GGPP to hexane-extractable products: 0.5 micromolar 3H GGPP plus unlabelled GGPP, 60 minutes at room temperature; for counts in hexane and ethyl acetate extracts after incubation with radiolabelled GGPP: hydrocarbon products extracted with hexane, oxygenated products with ethyl acetate, compared with buffer alone; for hexane-extractable products formed from GGPP, analyzed by Ag-TLC: overnight incubation at room temperature, FIG. 3
Description: (§1) Synthase activity assays were carried out based on the assay described in Vogeli and Chappell, Plant Physiol. 94:1860 (1990) and Vogeli, et al., Plant Physiol. 93:182 (1990). In general, radio-labeled (^3H or ^14C) substrate was incubated with enzyme at room temperature in a buffered magnesium salt solution (200 mM Tris, pH 8, 50 mM Mg chloride, 1 mM DTT, unless otherwise noted); hydrocarbon products were then selectively extracted into an organic solvent such as hexane. The hexane extract generally was treated with silica gel to remove prenyl alcohols and other oxygenated compounds generated by non-enzymatic hydrolysis of substrate, which partition inefficiently into hexane. Hydrocarbon products present in the hexane phase were quantitated by scintillation counting.
A subsequent extraction with a more polar organic solvent such as ethyl acetate was sometimes carried out. Oxygenated compounds more efficiently partition into ethyl acetate-type solvents. Compounds present in the ethyl acetate phase were also quantitated by scintillation counting.
(§2) Substrate concentrations typically ranged from 0.1 nanomolar to 100 micromolar. In some assays, the substrate was not radiolabeled. Reactions generally were carried out in triplicate for each substrate concentration. Protein concentration was determined by the Bradford method. For determination of steady-state kinetic parameters, enzyme concentrations were chosen such that generation of products over time was linear throughout the course of the reaction.
(§3) Diterpene synthase assays typically were carried out using ^3H geranylgeranyl diphosphate (GGPP) and enzyme in 250 mM Tris, 10 mM Mg chloride, 1 mM DTT, pH 8.0. Sesquiterpene synthase assays typically were carried out using ^14C or ^3H FPP and enzyme in 100 mM Tris, 30 mM Mg chloride, 1 mM DTT, pH 8.0. Monoterpene synthase assays typically were carried out using ^3H GPP and enzyme. As a control for nonspecific binding of GPP by protein, identical reactions were set up which contained BSA, rather than enzyme.
(§4) Terpenoid hydrocarbon products are not readily separated by thin layer chromatography on normal or reverse-phase plates; however, some can be separated by argentation TLC (Ag-TLC), in which silica plates are first treated with silver nitrate. Ag-TLC described here generally followed the procedure described by Back et al., Arch. Biochem. Biophys. 315:527 (1994). A silica TLC plate was dipped in 15% silver nitrate (aqueous), then dried for 3-5 hours at 110° C. After spotting of tritiated enzymatic products (solvent extract), the plate was developed in benzene:hexane, ethyl acetate (50:50:1, by volume), sprayed with En^3Hance (NEN) fluorography spray, placed on film, and exposed for several days to several weeks. Long exposure times were generally necessary, as silver-nitrate treatment of the TLC plate appeared to cause quenching of the fluorography reagents fluorescence. Alternatively, ^14C labelled products were detected after one to two days without the use of fluorography spray.
The TEAS W273S enzyme and radiolabelled GGPP were incubated as described above and hydrocarbon products were extracted with hexane. Oxygenated products were then extracted with ethyl acetate.
The mutant TEAS C440W1W273S protein contains a tryptophan residue at position 440 and a serine residue at position 273. Assays with GGPP were carried out using 0.5 micromolar ^3H GGPP, various concentrations of unlabelled GGPP (Echelon), and enzyme. Reactions were incubated for 60 minutes at room temperature. […] Hexane-extractable products of GGPP turnover by the double mutant were analyzed by Ag-TLC. The products included two species (Rf=0.11 and 0.28) that were distinct from the hydrolysis product geranyl geraniol (Rf=0.0).To verify that products generated by TEAS C440W/W273S from GGPP were not the hydrolysis product, geranylgeraniol, a sample was analyzed by Ag-TLC. […]

[2] = Alkylation of enzyme by radiolabeled FPP; settings: dependent upon the presence of MgCl2
Description: Reactions to determine the products made by TEAS W273E using FPP as substrate were carried out essentially as described above, using radioiabeled FPP. […] The alkylation was dependent upon the presence of MgCl2 in the reaction mixture. In control experiments, boiled W273E-TEAS, as well as wild-type TEAS and BSA, were not alkylated.

[3] = Sesquiterpene synthase activity assay with radiolabelled FPP (Ag-TLC and GC/MS product analysis); settings: for products of FPP turnover, analyzed by Ag-TLC: radiolabelled FPP, FIG. 4
Description: as §1, §2, §3, §4
Products of FPP turnover by the purified TEAS W273S mutant were analyzed by argentation thin-layer chromatography (Ag-TLC).
Reactions with FPP as substrate were carded out with ^14C FPP (9 μm) and enzyme (160 μm) in reaction buffer (20 μl). After incubating for 30 minutes at room temperature, products made by TEAS C440W/W273S were analyzed by Ag-TLC. […] The new product was distinct from both 5-epi-aristolochene and vetispiradiene. Several other products were also formed, many of which migrated slowly upon argentation TLC.
Reactions with radiolabeled FPP and TEAS Y520F enzyme were carried out essentially as described above. Reaction products were analysed by Ag-TLC and by GC/MS.

[4] = Monoterpene synthase activity assay with GPP; settings: crude extract of enzyme from E. coli
Description: as §1, §3
A crude extract of TEAS Y527F enzyme was made by inducing expression in E. coli cells, and sonicating the cells. […]

alkylation of the enzyme by FPP [2] | Molecule | products of FPP turnover, analyzed by Ag-TLC [3] | hexane-extractable products formed from GGPP, analyzed by Ag-TLC [1] | products of FPP turnover, hexane extract analyzed by GC/MS [3] | further results
not alkylated | B1 |  |  |  | conversion of GGPP to hexane-extractable products [1]: did not; counts in hexane and ethyl acetate extracts after incubation with radiolabelled GGPP [1]: counts lower than buffer alone
alkylation of TEAS by FPP had occurred | B2 | at least one product other than 5-epi-aristolochene was formed |  |  | 
 | B3 | products other than 5-epi-aristolochene were generated |  |  | products formed with GPP as a substrate (monoterpene synthase activity) [4]: No products were observed
not alkylated | B4 |  |  |  | 
 | B5 | distinct from both 5-epi-aristolochene (Rf=0.78) and vetispiradiene (Rf=0.63) | distinct from the products made by acid-catalyzed loss of diphosphates from GGPP | at least four terpene hydrocarbons | counts in hexane and ethyl acetate extracts after incubation with radiolabelled GGPP [1]: counts that were significantly higher for both the hexane and ethyl acetate extracts
 | B6 |  | different from those generated by non-enzymatic degradation of geranylgeranyl diphosphate |  | conversion of GGPP to hexane-extractable products [1]: converted GGPP to hexane-extractable products
 | B7 |  |  | same GC retention time as authentic germacrene A and the same mass spectrum as authentic germacrene A | 
 | B8 | at least one major terpenoid hydrocarbon product | no hexane-extractable products were detectable | single major sesquiterpene hydrocarbon product as well as a small number of minor hydroxylated products | 
